Data as given in paper PMC6150820 (ACS chemical biology, 2018).

Legend:
[1] = target: T1, E. faecalis Fsr QS circuit (gelE promoter) (Enterococcus faecalis, UniProt A0ACD6TCR9); assay type: cell-based, E. faecalis TX5274; conditions: EC50 ratio relative to GBAP; for Fold Change relative to GBAP, loss in potency: parentheses = loss
[2] = target: T1, E. faecalis Fsr QS circuit (gelE promoter); conditions: cited from earlier work; for EC50: read-out: EC50 [95% CI], previously published analog shown for comparison
[3] = test system: wild type E. faecalis cells (strain TX4002); test: Biofilm formation phenotypic assay; assay type: cell-based; conditions: exogenous GBAP added to wild type TX4002 cells

Substance	Fold Change relative to GBAP, improvement in potency ([1]; no parentheses = improvement) [fold]	EC50 [2] [nM]	increase in the amount of biofilm formation [3]	Fold Change relative to GBAP, loss in potency [1]	agonist activity [2]
Ac-GBAP-Des(Q1N2) (SPNIFGQWM; not fully specified; N-acetyl tail; lactone macrocycle) [Peptide 10]	1.1	1.01			
GBAP (SPNIFGQWM; not fully specified; N-terminal QN tail; lactone macrocycle) [Peptide 1, reference compound]		1.15	30–50%		
GBAP-Des(Q1N2) lactam (SPNIFGQWM; head-to-tail lactam cyclization) [Peptide 11]		> 10000		(> 10,000) fold	completely inactive
GBAP-G8A [Peptide 2]		> 10000		(> 10,000) fold	complete loss of activity
GBAP-f7 [Peptide 4]		4.97			
GBAP-s3 [Peptide 12]		45.1			
